From the DeepSol protein solubility set

Assay: soluble on expression in E. coli; label from the status in PepcDB or PDB records

Soluble on expression in E. coli, not soluble:
MGSDKIHHHHHHMNRKVAIVTGTNSNLGLNIVFRLIETEDTNVRLTIVVTSRTLPRVQEVINQIKDFYNKSGRVEDLEIDFDYLLVDFTNMVSVLNAYYDINKKYRAINYLFVNAAQGIFDGIDWIGAVKEVFTNPLEAVTNPTYKIQLVGVKSKDDMGLIFQANVFGPYYFISKILPQLTRGKAYIVWISSIMSDPKYLSLNDIELLKTNASYEGSKRLVDLLHLATYKDLKKLGINQYVVQPGIFTSHSFSEYLNFFTYFGMLCLFYLARLLGSPWHNIDGYKAANAPVYVTRLANPNFEKQDVKYGSATSRDGMPYIKTQEIDPTGMSDVFAYIQKKKLEWDEKLKDQIVETRTPI
MGSDKIHHHHHHMNRTMSSINVLSLPVFNRDASGYDALRRGLIPCFDAFYGTALDLIDDWRDAEKLRVLDLGAGTGLFTAMLLTRHPDAQIHLIDASEKMLEQARKRFDGNPAITYAVADMANTELGGPWDLIISALAIHHLEDIGKKHLFGEIRGALSEGGLFVNVEQVLGHDPEVEARYARTWLQQVRRLGVAEVEIAKAHERMSHDRCSPLENQLQWMRDTGFCEIDCSFKAWRFAVLSGRR
MGSDKIHHHHHHMNTFPAVLIGGPPHSGKSVLTYLLTQYLRQRGIEHYVLRACPDGEGDWSQESTPDLVRLLRQKGAFDRTFVDRVCRDIEQRHLPLLVDVGGRPTLDQERIIQRCTHAIVLSATPQGMDEWRNRVEQYGLIIVAELHSELHGSDQIEVEKPVLRGVISGLERNAPTGGIVVEALANRLARLMHYDQAELVQQHLQRAPAELVVDLDRLARQMWVEATQRRWIPPDLPQILDSIPAKTPLAIYGRGPNWLYAALAGHTAPAPFSLFDPRLGWAQAQSLRRVPQPVADVIRWQTREEQDYTLLKAHLLEPYLDYDDLSALTVPRLDPQRGVVVSGKLPFWLLTSLIVTYHEHPWLAVIQPQLNPNSVIIFSRCEDYRPGNSIQVVLD
MGSDKIHHHHHHMNTLQRRKTHQVRIDHITVGSEAPVVIQSMTNTDTADAKATALQIKELSDAGSEMVRITVNSPEAASKVAEIRRRLDDMGYATPLIGDFHFNGERLLAEFPECGKALSKYRINPGNVGKGVKGDEKFAFMIRTAAENDKAVRIGVNWGSLDQSLAKRMMDANLASSAPKPPEEVTKEALIVSALESAEKAVLLGLPEDKIILSCKVSAVQDLIQVYRELGSRCAYPLHLGLTEAGMGSKGIVASTAALSVLLQEGIGDTIRISLTPEPGSPRTQEVVVGQEILQTMGLRSFTPMVTACPGCGRTTSTVFQELAQDVQNYLRQKMSIWRTLYPGVESLNVAVMGCVVNGPGESKLADIGISLPGTGETPVAPVYVDGERKVTLKGDNIATEFLAIVEEYVKTNYGENGSKRNQNKIIPIQSL
MGSDKIHHHHHHMNTLTDVEWNAFALPANLADGHAYHDMHVAFMEIMKNLERIWSEADKITPPRMALDFKNSFSRLIKSPSLMPHTHYKICPSASNSIDLIAAFLHGKNIRTVLVEPTFDNLALLLQRRGVTVDSVSEDNLTHHLVDGNFDSIPAIKTAEAVFIVSPNNPTGYTLSLQEFKTLVAYCKRTEKLLVVDNSFRFFNRQGYDDYQVLLESGVNFIAFEDTGKTWPTQDLKASLIIYSDTVKVFFESLYNEIYLCVSNFVLHLFSHLFDATSAVGLKSVLWDVVDSNRALLRETLQGSVLRISETSKEGLK
MGSDKIHHHHHHMNVHVAVQTQAHRLDSNTAAFARDVLDGLTKPQKELSPKYFYDDTGSELFVEITRLPEYYPTRTELGILRDRAAEIAALIPPDAAIVEFGAGATTKIRLLLAAHQVAAYVPVDISGDFIITQAEALQRDFPQLAVHPLAADFTKPFALPPAVRDLPKVGFFPGSTIGNFEPQEARRFLESARDILGRGARMIIGVDLEKDENVLVPAYDDAAGVTGKFNLNLLIRINRELGADFDLSAFAHRAIYNRDQHRIEMHLVSLRDQSVHLFGERIGFRAGESIHTENSYKYSLERFRALAQQAGWTPARCWTDADAMFSVHAIETNGSRV
MGSDKIHHHHHHMNYEDFKEVIHGRRSVRKFTEQEVATSDIKDIIDCARYAPSDTNSQTWEFLVIMNREKIKEIEQMTWDALHKLAAKAAKNGEEKAGKLLTRSFGPYATAFSEAPVLIVCLATPYESKFREKIFDPIAFVPDSVWEEEGIKSSCLAAQNLMLAAHAKGLGTCPMTGPVLLAQDELRQYLQIEPEKQINMVISLGFPKDKPKKLPRKEVDEITTFVF
